# Measurements taken from the DeepSol protein solubility set.
# Experiment: soluble on expression in E. coli; label from the status in PepcDB or PDB records
row,Sequence,soluble on expression in E. coli
1,KIDDGTELKLKGEKLRYVSRGGLKLEKALAVFNLSVEDMITIDIGASTGGFTDVMLQNGAKLVYAVDVGTNQLVWKLRQDDRVRSMEQYNFRYAEPVDFTEGLPSFASIDVSFISLNLILPALAKILVDGGQVVALVKPQFEAGREQIGKNGIVRESSIHEKVLETVTAFAVDYGFSVKGLDFSPIQGGHGN,not soluble
2,MSLKQYETIILHRHVRPDPDAYGSQMGLAEIIRASFPEKKVYSVGNDEKSLQFLGIVDEITDEIYKDALVIVCDTANQERISDGRFNLGKALIKIDHHPNDDAYGDLLWVDTTASSCSEMIVAFWEMFSDELILNETAARLLYAGIVGDTGRFLYPSTTEETLRLSAHLVTFPFDRPALYRELYELPKNTVKLSGYILQNFVMDENGAATVYLSDTLLNEFEVDPRDASALVSCIENVKGIKAWIMFIQEGPVFRARLRSKGPVINELAKEYGGGGHPLASGATLHNEEEIKEMTAKLQRIEGHHHHHH,not soluble
3,SYVQEHRLWGLMDKPHSAPCLMSLSLSFLICNKGRNAIRVQQSTDERMDAMLLWQCPTQGTRKNHESNSSLHHVPNWIFHSTIIPPNKGSKRCLRKVDWLLPRAGGVGGKRGVTADGDRVSF,soluble
4,MGSSHHHHHHSSGLVPRGSSRRKSNCVKEVEKLQEKREKRRLQQQELREKRAQDVDATNPNYEIMCMIRDFRGSLDYRPLTTADPIDEHRICVCVRKRPLNKKETQMKDLDVITIPSKDVVMVHEPKQKVDLTRYLENQTFRFDYAFDDSAPNEMVYRFTARPLVETIFERGMATCFAYGQTGSGKTHTMGGDFSGKNQDCSKGIYALAARDVFLMLKKPNYKKLELQVYATFFEIYSGKVFDLLNRKTKLRVLEDGKQQVQVVGLQEREVKCVEDVLKLIDIGNSCRTSGQTSANAHSSRSHAVFQIILRRKGKLHGKFSLIDLAGNERGADTSSADRQTRLEGAEINKSLLALKECIRALGRNKPHTPFRASKLTQVLRDSFIGENSRTCMIATISPGMASCENTLNTLRYANRVKEL,soluble
5,QEGTSPMQKETRFLPGTNVEYEDYSTFFDKFSASGGFVLFNSNRKKYTIYNRKESTSRFAPASTYKVFSALLALESGIITKNDSHMTWDGTQYPYKEWNQDQDLFSAMSSSTTWYFQKLDRQIGEDHLRHYLKSIHYGNEDFSVPADYWLDGSLQISPLEQVNILKKFYDNEFDFKQSNIETVKDSIRLEESNGRVLSGKTGTSVINGELHAGWFIGYVETADNTFFFAVHIQGEKRAAGSSAAEIALSILDKKGIYPSVSR,soluble
6,MGSDKIHHHHHHMSVRNFMAYHQLSYTFLNHQKLPLIIQPQAKAEGNIDVLKQFLKEENTLFKEQLLNYGAIILRGFHVNTAEQFLEVIRSSDLGPNYSYDFCPIPRTQIRENIYTSINIHPSFNLALHNEKSYDQDFPSHIFFNCIHAPQTGGDTALADGNKIWFSLPKLLQKKLQSKGILYRRHYYGSGIQYKIIRSIGKNSGCMTWMERFQTDDQNKVEVMLQQMGVQFRWIQGNGLIIEQLLPACRNHPISGKLVWFNQSNHANHYYNGTSDYIKSKINNTFSRFILLHKYFHPYIAFYGDGEPLSKQEADCINSAIQKNTVSTAWQPGDVMIVDNFSCLHGKTPHTGNRLILVGLTKYFD,not soluble
7,MAHHHHHHMDSLYFIGKAQFHQLATHISLYHEDMSDGYKHLSTDAVMAVGLKPHKFTYWNVPMMSGYLGKTVPLDIHGGYVMIDEEKVMPMATSYGMLRYALLTSAVRAKEGGRWRYDFMTMNSTLAIGTAAGLGLLSFGRQRIGWIRRHPIGSVMASFVACLTTTVIARQGIKALGIGIVQAQNSHKRALNCLHCVDCLEDVNTYTLKQIEELKAQQIPQQAGMPPPPEEYVRRFKKGVEMQCRLLETDMEEVRLIRKWAGASLCDVHQHLRDDPMGYKEPHGLVLLASDRARAAERPPLATMPDDKKGIRPAKS,not soluble
8,MTPLERYQADLKRPDFFHDSAQENAVRHLQRLYEDLVAAHDSKPGLFGKLFGKKEPTLVKGLYFWGGVGRGKTYLVDTFFEALPFQDKVRTHFHRFMKRVHEEMKTLKGERNPLTIIAKRFSDEARVICFDEFFVSDITDAMILGTLMEELFKNGVTLVATSNIVPDGLYKDGLQRARFLPAIALIKQNTDIVNVDSGVDYRLRHLEQAELFHFPLNDAAQESMRKSFKALTPDCAETVENDVLMIENREIRALRTCDDVAWFDFRELCDGPRSQNDYIELGKIFHAVLLSGVEQMDVSTDDIARRFINMVDEFYDRNVKLIISAEVELKDLYTGGRLMFEFQRTLSRLLEMQSHEFLSRAHRP,not soluble
